These results are taken from the Immune Epitope Database (IEDB).

Usually Kd stands for the constant that tells how readily two partners part at equilibrium.

The target in one assay is HLA-B*44:03. Put plainly: IEDB peptide-MHC binding, purified MHC/competitive/radioactivity; filed as Kd, often an IC50 or EC50 that approximates it; ≥ and ≤ were set here for values at or beyond the usual limits of such assays.
Assay [1] has as its target HLA-B*40:01. The assay is described as above.
The target of the next assay is HLA-B*40:02. The assay is described as above.
The target in a further assay is HLA-B*45:01. Described as above.
A further assay concerns the target HLA-B*18:01. Described as above.
The target of the next assay is HLA-B*44:02. The assay is described as above.
A further assay addresses HLA-B*35:01. The description is as above.
A further assay deals with HLA-B*51:01. Described as above.
For another assay, the target named is HLA-B*53:01. The description is as above. The settings on record: source organism: Dengue virus 3 Martinique/1243/1999.
A further assay has as its target HLA-B*15:01. Put plainly: IEDB peptide-MHC binding, purified MHC/competitive/fluorescence; filed as Kd, often an IC50 or EC50 that approximates it; ≥ and ≤ were set here for values at or beyond the usual limits of such assays. The settings on record: source organism: Escherichia coli str. K-12 substr. MG1655.
The target in assay [2] is HLA-B*40:01. Put plainly: IEDB peptide-MHC binding, purified MHC/direct/fluorescence; filed as Kd, often an IC50 or EC50 that approximates it; ≥ and ≤ were set here for values at or beyond the usual limits of such assays. The settings on record: source organism: Mycobacterium avium subsp. paratuberculosis.
Another assay concerns the target HLA-B*07:02. Put plainly: IEDB peptide-MHC binding, purified MHC/competitive/radioactivity; filed as Kd, often an IC50 or EC50 that approximates it; ≥ and ≤ were set here for values at or beyond the usual limits of such assays.
The target of the next assay is HLA-A*26:01. Put plainly: IEDB peptide-MHC binding, purified MHC/competitive/fluorescence; filed as Kd, often an IC50 or EC50 that approximates it; ≥ and ≤ were set here for values at or beyond the usual limits of such assays. The settings on record: source organism: Escherichia coli str. K-12 substr. MG1655.
Setting [3] is: source organism: SARS coronavirus Tor2.
Where [4] appears, read: source organism: Dengue virus 3 Martinique/1243/1999.
The mark [5] stands for this setting: source organism: Mammarenavirus choriomeningitidis.
Setting [6] is: source organism: Mammarenavirus machupoense.
The mark [7] stands for this setting: source organism: Mammarenavirus guanaritoense.
[8] abbreviates: source organism: Mammarenavirus lassaense.
Setting [9] is: source organism: Dengue virus 4 Philippines/H241/1956.
The mark [10] stands for this setting: source organism: Dengue virus 1 Brazil/97-11/1997.

Take QECNNMHLST: the Kd was 7120 nM with HLA-B*44:03 (setting [3]); 15200 nM with HLA-B*40:01 [1] (setting [3]); 595 nM with HLA-B*40:02 (setting [3]); 636 nM with HLA-B*45:01 (setting [3]); at least 70500 nM in the assay with HLA-B*18:01 (setting [3]); 5610 nM with HLA-B*44:02 (setting [3]).

Regarding MPSMKRFRKE, the results for the equilibrium dissociation constant (Kd) with HLA-B*35:01 (setting [4]), in the assay with HLA-B*51:01 (setting [4]) and with HLA-B*53:01 were 14000 nM, at least 69600 nM and 10900 nM, respectively.

Turning to AELLPDTTYL, the dissociation constant Kd is 1210 nM in the assay with HLA-B*44:03 (setting [5]); 9780 nM in the assay with HLA-B*40:01 [1] (setting [5]); 167 nM with HLA-B*40:02 (setting [5]); 17300 nM in the assay with HLA-B*45:01 (setting [5]); at least 70400 nM in the assay with HLA-B*18:01 (setting [5]); 561 nM with HLA-B*44:02 (setting [5]).

With IEELFYSYA, the dissociation constant Kd with HLA-B*44:03 (setting [3]) was determined as 4600 nM; with HLA-B*40:01 [1] (setting [3]) it was 16000 nM; in the assay with HLA-B*40:02 (setting [3]), 3060 nM; with HLA-B*45:01 (setting [3]) it was 49.5 nM; in the assay with HLA-B*18:01 (setting [3]), 3960 nM; in the assay with HLA-B*44:02 (setting [3]) it was 1770 nM.

In the case of AENVIVGLV, the equilibrium dissociation constant (Kd) in the assay with HLA-B*44:03 (setting [6]) is 340 nM; with HLA-B*40:01 [1] (setting [6]) it was 2930 nM; with HLA-B*40:02 (setting [6]), 30 nM; with HLA-B*45:01 (setting [6]) it was 3.39 nM; with HLA-B*18:01 (setting [6]), at least 77500 nM; with HLA-B*44:02 (setting [6]), 142 nM.

As to ANNKVYEAY, in the assay with HLA-B*15:01, the Kd worked out at 499 nM.

In the case of CEKALKYLPI, the Kd was 1150 nM in the assay with HLA-B*44:03 (setting [3]); 6970 nM with HLA-B*40:01 [1] (setting [3]); 30.3 nM with HLA-B*40:02 (setting [3]); 104 nM in the assay with HLA-B*45:01 (setting [3]); at least 29100 nM with HLA-B*18:01 (setting [3]); 127 nM with HLA-B*44:02 (setting [3]).

As for LEREQIPTLI, the Kd in the assay with HLA-B*44:03 (setting [7]) is 12800 nM; with HLA-B*40:01 [1] (setting [7]) it was 2750 nM; with HLA-B*40:02 (setting [7]) it was 559 nM; in the assay with HLA-B*45:01 (setting [7]) it was 9710 nM; with HLA-B*18:01 (setting [7]) it was at least 57500 nM; in the assay with HLA-B*44:02 (setting [7]), 19600 nM.

Regarding DEADLDEILL, the Kd with HLA-B*44:03 (setting [8]) is at least 26900 nM; in the assay with HLA-B*40:01 [1] (setting [8]), 18100 nM; in the assay with HLA-B*40:02 (setting [8]), 5930 nM; with HLA-B*45:01 (setting [8]) it was at least 45000 nM; with HLA-B*18:01 (setting [8]), 1700 nM; in the assay with HLA-B*44:02 (setting [8]), at least 45600 nM.

Consider FSRENSYSGV, for which the dissociation constant (Kd) with HLA-B*51:01 (setting [4]) is at least 44800 nM.

Turning to KEHKGVGFL, in the assay with HLA-B*40:01 [2], the Kd was found to be 30.3 nM.

In the case of HEFVDEFYAY, the Kd is 85.9 nM with HLA-B*44:03 (setting [3]); 835 nM with HLA-B*40:01 [1] (setting [3]); 331 nM in the assay with HLA-B*40:02 (setting [3]); 7210 nM in the assay with HLA-B*45:01 (setting [3]); 44.2 nM in the assay with HLA-B*18:01 (setting [3]); 3500 nM with HLA-B*44:02 (setting [3]).

With IPKAYAGPF, the Kd with HLA-B*07:02 (setting [9]) was 7.32 nM; in the assay with HLA-B*35:01 (setting [9]), 290 nM.

Consider PPFGESYIV, for which the Kd in the assay with HLA-B*51:01 (setting [10]) worked out at 9840 nM.

Consider LPWTSGATT, for which the dissociation constant Kd stood at 25.8 nM in the assay with HLA-B*07:02 (setting [4]) and 1300 nM with HLA-B*35:01 (setting [4]).

With GDEALTGFL, the Kd is at least 78100 nM with HLA-B*44:03 (setting [6]); 908 nM with HLA-B*40:01 [1] (setting [6]); 2990 nM with HLA-B*40:02 (setting [6]); at least 22600 nM with HLA-B*45:01 (setting [6]); 5820 nM in the assay with HLA-B*18:01 (setting [6]); 13800 nM with HLA-B*44:02 (setting [6]).

Regarding GPLIAGGML, in the assay with HLA-B*07:02 (setting [10]), the dissociation constant Kd was 127 nM.

TPPGATDPF: the dissociation constant Kd turned out to be 1070 nM with HLA-B*07:02 (setting [9]) and 132 nM in the assay with HLA-B*35:01 (setting [9]).

On to ADVFHLYLQY, for which the Kd is 147 nM with HLA-B*44:03 (setting [3]); 16500 nM with HLA-B*40:01 [1] (setting [3]); at least 39800 nM in the assay with HLA-B*40:02 (setting [3]); 11400 nM with HLA-B*45:01 (setting [3]); at least 20700 nM with HLA-B*18:01 (setting [3]); 2420 nM with HLA-B*44:02 (setting [3]).

As for REAACCHLA, the Kd in the assay with HLA-B*44:03 (setting [3]) was 1910 nM; in the assay with HLA-B*40:01 [1] (setting [3]) it was 236 nM; with HLA-B*40:02 (setting [3]), 97.5 nM; in the assay with HLA-B*45:01 (setting [3]), 11.4 nM; with HLA-B*18:01 (setting [3]) it was at least 31400 nM; in the assay with HLA-B*44:02 (setting [3]), 3030 nM.

Consider ALKANNKVY, for which the values for the Kd with HLA-B*15:01 and with HLA-A*26:01 were 708 nM and at least 20000 nM, respectively.

Take TEYDGHINL: the Kd is 9880 nM with HLA-B*44:03 (source organism: Variola virus); 6.19 nM with HLA-B*40:01 [1] (source organism: Variola virus); 0.998 nM with HLA-B*40:02 (source organism: Variola virus); 391 nM with HLA-B*45:01 (source organism: Variola virus); 11.5 nM in the assay with HLA-B*18:01 (source organism: Variola virus); 58.3 nM with HLA-B*44:02 (source organism: Variola virus).

For AEVEWKFYDA, the Kd with HLA-B*44:03 (setting [3]) came to 90.5 nM; in the assay with HLA-B*40:01 [1] (setting [3]), 8440 nM; in the assay with HLA-B*40:02 (setting [3]) it was 4690 nM; with HLA-B*45:01 (setting [3]) it was 5.54 nM; with HLA-B*18:01 (setting [3]) it was 1540 nM; with HLA-B*44:02 (setting [3]) it was 79 nM.
